This is an account of results in patent publication US20160145343A1 (UNIVERSITY OF PITTSBURGH OF THE COMMONWEALTH SYSTEM OF …, published 2016).

Test [1] has as its target T1, MUC1 on MUC1+ human cancer cell lines and tumor tissue (abnormal, e.g. hypoglycosylated, tumor MUC1) (human, UniProt P15941 24-1255).
T1 construct: the MUC1 of each cell line or tissue (number of repeats, glycoform) is not specified; The cell line or tissue is named under assay; also called MUC1 on HPAF, MCF-7, BT-20, SKBR-3, PANC-1, MS+MUC1 cells; MUC1 on colon and pancreatic tumor samples
Briefly: flow cytometry, MCF-7 cells. As for the experimental part: (§1) The antibodies were further characterized for their surface binding to MUC1-expressing human cancer cell lines HPAF (pancreatic), MCF-7 (breast), BT-20 (breast), PANC-1 (pancreatic), and MS (breast) cell lines that express very low levels of MUC1 and was transfected with MUC1 cDNA (MS+MUC1). MCF-10A, a human nontransformed mammary epithelial cell line that expresses normal MUC1, was used as a predicted negative control for tumor MUC1 (hypoglycosylated MUC1)-specific staining Cells were grown attached to tissue culture plates, trypsinized, washed with PBS and 1% FBS and stained with each antibody for 30 minutes on ice. Cells were then washed 2 times with PBS and 1% FBS and stained with appropriate allophycocyanin (APC)-labeled secondary antibodies. Cells were washed again 2 times with PBS and 1% FBS and then analyzed by flow cytometry. Thirty-thousand events were collected for each sample and gated for viability by forward and side scatter. Live cells were then gated for APC+ staining as compared to an appropriate secondary antibody only control.
A general note: In flow cytometry, cells or beads pass a laser one at a time.

For test [2], the target named is T1, MUC1 on MUC1+ human cancer cell lines …. Briefly: flow cytometry, SKBR-3 cells. The method, then:
as §1

The target is the same in test [3]. Nature of the test: flow cytometry, HPAF cells. The method, then:
as §1

For test [4] the target is unchanged. Nature of the test: flow cytometry, BT20 cells. As for the experimental part: as §1
Test [5] shares this target. Briefly: flow cytometry, PANC-1 cells. The method, then: as §1
Test [6] shares this target. Briefly: flow cytometry, MS+MUC1 cells. The method, then:
as §1

The target is the same in test [7]. Nature of the test: immunohistochemistry, colon tissue microarray, benign samples. As for the experimental part:
(§2) Secondary antibodies alone were used as negative controls. Following staining, the microarrays were analyzed using CELLPROFILER cell image analysis software (Broad Institute).

The target is the same in test [8]. Nature of the test: immunohistochemistry, colon tissue microarray, malignant samples. The method, then:
as §2

Numbering of substitutions follows the chain as printed.

B1: M22 (antibody, human IgG1, kappa, V domains shown)
VH: EVQLVESGGGLVQPGGSLRLSCAASGFTVSSNYMSWVRQAPGKGLEWVSVIYSGGTTYYADSVKGRFTISRHNSKNTLYLQMNSLRAEDTAVYYCARDHDPDYGGYYMDVWGKGTTVTVSS
VL: DVVMTQSPLSLPVTLGQPASISCRSSQSLVYSDGNTYLNWFQQRPGQSPRRLIYQVSNRDSGVPDRFSGSGSGTDFTLKIGRVEAEDVGVYFCMQGTHWPWTFGQGTKVEIKR
notes: Human IgG
Regarding B1, the “percentage of APC+ stained cells” value in test [1] turned out to be 5.68%; in test [2], 1.34%; in test [3], 2.99%; in test [4], 3.39%; in test [5], 0.7%; in test [6], 5.78%.

B2: M20 (antibody, human IgG1, kappa, V domains shown)
VH: EVQLVESGGGLVQPGGSLRLSCAASGFTFSSYWMHWVRQAPGKGLVWVSHINSDGSSTSYADSVKGRFTISRDNAKNTLYLQMNSLRAEDTAVYYCARELADWGQGTLVTVSS
VL: B1 VL
notes: Human IgG
Take B2: the “percentage of APC+ stained cells” value in test [1] amounted to 29.2%; in test [2], 1.91%; in test [3], 4.36%; in test [4], 9.86%; in test [5] it was 0.39%; in test [6] it was 6.32%.

B3: M21 (antibody, human IgG1, kappa, V domains shown)
VH: EVQLVESGGGLVQPGGSLRLSCAASGFTVSSNYMSWVRQAPGKGLEWVSVIYSGGSTYYADSVKGRFTISRDNSKNTLYLQMNSLRAEDTAVYYCARDQEHYFDGSGYYVDYWGQGTLVTVSS
VL: B1 VL
notes: Human IgG
In the case of B3, the “percentage of APC+ stained cells” value in test [1] came out at 5%; in test [2], 0.99%; in test [3], 2.6%; in test [4], 4.06%; in test [5] it was 0.75%; in test [6] it was 4.41%.

B4: M3 (antibody, human IgG1, lambda, V domains shown)
VH: QLQLQESGPGLVKPSETLSLTCTVSGGSISSSSYYWGWIRQPPGKGLEWIGSIYYSGSTHYNPSLKSRVTISVDTSKNQFSLKLRSVTAADTAVYYCARGVVEVRGNHYYYYYMDVWGKGTTVTVSS
VL: QSVLTQPPSVSGAPGQRVTISCTGSSSNIGAGYDVHWYQQLPGTAPKLLIYGNSYRPSGVPDRFSGSKSGTSASLAITGLQAEDEADYYCQSYDSSLSGSGVFGGGTKLTVLG
notes: Human IgG
With B4, the “percentage of APC+ stained cells” value worked out at 79.6% in test [1]; 5.71% in test [2]; 42.1% in test [3]; 14.8% in test [4]; 1.55% in test [5]; 22% in test [6].

B5: M7 (antibody, human IgG1, kappa, V domains shown)
VH: EVQLVESGGGLVQPGGSLRLSCAASGFTVSSNYMSWVRQAPGKGLEWVSVIYSGGSTYYADSVKGRFTISRDNSKNTLYLQMNSLRAEDTAVYYCARGSTNTYYYDSSGHPWGQGTMVTVSS
VL: DIVMTQSPLSLPATPGEPASISCRSSQSLLHSNGYTYLDWYLQKPGQSPQVLIYLASNRASGVPDRFSGSGSGTNFTLKISRVEAEDVGLFYCMQALQTPQTFGQGTKLEIKR
notes: Human IgG
Regarding B5, the “percentage of APC+ stained cells” value in test [1] was determined as 83.5%; in test [2], 1.65%; in test [3] it was 51.5%; in test [4], 12.2%; in test [5], 0.41%; in test [6], 22.4%.

B6: M14 (antibody, human IgG1, kappa, V domains shown)
VH: QVQLVESGGGLVKPGGSLRLSCAASGFTFSDYYMSWIRQAPGKGLEWVSYISSSGTTKYYADSVKGRFTISRDNAKNSLYLQMNSLRAEDTAVYYCVRENLGYCSGGSCFYYYYMDVWGKGTTVTVSS
VL: not shown
B6: the “MUC1+ samples stained” value in test [7] was 2 of 3 MUC1+ benign samples; in test [8] it was 56 of 114 MUC1+ malignant samples. Further, the “percentage of APC+ stained cells” value in test [1] is 20.8%; in test [2] it was 22.3%; in test [3], 6.81%; in test [4], 22.9%; in test [5], 55.2%; in test [6], 28.4%.

B7: M16 (antibody, human IgG1, kappa, V domains shown)
VH: B6 VH
VL: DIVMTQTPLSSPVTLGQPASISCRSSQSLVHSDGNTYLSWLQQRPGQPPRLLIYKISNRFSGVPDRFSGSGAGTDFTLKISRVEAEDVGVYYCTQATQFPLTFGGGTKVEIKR
notes: Human IgG
Take B7: the “percentage of APC+ stained cells” value came out at 18.3% in test [1]; 2.68% in test [2]; 5.93% in test [3]; 5.17% in test [4]; 0.76% in test [5]; 7.03% in test [6].

B8: M23 (antibody, human IgG1, kappa, V domains shown)
VH: B6 VH with L101I, S105T, S108N
VL: not shown
Turning to B8, the “MUC1+ samples stained” value in test [7] was 2 of 3 MUC1+ benign samples; in test [8], 76 of 114 MUC1+ malignant samples. Also, the “percentage of APC+ stained cells” value turned out to be 16.1% in test [1]; 18.6% in test [2]; 5.71% in test [3]; 23% in test [4]; 45.1% in test [5]; 33.8% in test [6].
